According to patent US6461832B2, “Method of detecting procarboxypeptidase A and carboxypeptidase A levels in biological fluids” (priority 1997, dated 2002):
“And” between values parts separate entries of the source, which are not always exact repeats. Equal values may be shown once.

Key:
carboxypeptidase A (CPA) = target: T1, carboxypeptidase A (CPA) (Homo sapiens, UniProt P15085); conditions: CPA specific inhibitor; reported values (Byers and Wolfenden 1973; Peterson et al. 1976); cited from earlier work
T1 sequence (P15085 111-419): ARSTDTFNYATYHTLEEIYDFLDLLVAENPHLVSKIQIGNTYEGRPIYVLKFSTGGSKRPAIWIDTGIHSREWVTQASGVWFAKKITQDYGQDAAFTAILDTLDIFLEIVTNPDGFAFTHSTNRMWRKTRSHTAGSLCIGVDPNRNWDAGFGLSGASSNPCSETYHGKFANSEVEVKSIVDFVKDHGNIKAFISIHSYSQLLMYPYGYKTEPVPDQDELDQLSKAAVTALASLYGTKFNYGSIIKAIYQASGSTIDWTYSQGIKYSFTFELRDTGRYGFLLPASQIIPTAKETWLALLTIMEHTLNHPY

[1] = test system: procarboxypeptidase A (PCPA) in human serum; test: Activation of PCPA in human serum with clostripain, total CPA activity; format: biochemical; conditions: sera from four healthy individuals and one with pancreatitis
Experimental: In the present invention, the protease clostripain was added to activate any PCPA in the biological fluid so that total CPA could be measured.
Approximately 3 mg (500 units) of lyophilized clostripain was dissolved in 1 ml of 10 mM Tris buffer (pH 8.0) along with CaCl2 and Cleland's Reagent at final concentrations of 20 mM and 1 mM, respectively. This mixture was incubated at room temperature for approximately 2 hours. This solution was then added to serum in concentrations ranging from approximately 50 to 500 units of clostripain/ml of serum. One unit was defined as the amount of clostripain which could cleave one micromole of Nα-benzoyl arginine ethyl ester (BAEE) in one minute. Determination of PCPA levels in blood donor samples was performed with 250 units of clostripain per ml serum. The standard serum volume was 0.013 ml serum per ml total solution. This mixture was incubated for five minutes at 37° C., after which time Ellman's Reagent was added at the standard concentration to eliminate clostripain as it quickly derivatizes all sulfhydryl groups in the mixture. From this point, the standard assay as described in Example 2 was followed.

Molecule	Ki (carboxypeptidase A (CPA))	CPA activities after activation, compared with trypsin [1]	CPA activity loss at supramaximal concentrations of activating protease ([1]; unlike trypsin)
O=C(O)CC(Cc1ccccc1)C(=O)O (racemic) [α-benzylsuccinic acid]	1000 nM and 1600 nM		
clostripain: protease added to activate PCPA in the biological fluid (protein, UniProt P09870 51-181; P09870 191-526, looked up) Clostripain light chain: NKNQKVTIMYYCDADNNLEGSLLNDIEEMKTGYKDSPNLNLIALVDRSPRYSSDEKVLGEDFSDTRLYKIEHNKANRLDGKNEFPEISTTSKYEANMGDPEVLKKFIDYCKSNYEADKYVLIMANHGGGAR Clostripain heavy chain: AICWDDSNLDKNGEADCLYMGEISDHLTEKQSVDLLAFDACLMGTAEVAYQYRPGNGGFSADTLVASSPVVWGPGFKYDKIFDRIKAGGGTNNEDDLTLGGKEQNFDPATITNEQLGALFVEEQRDSTHANGRYDQHLSFYDLKKAESVKRAIDNLAVNLSNENKKSEIEKLRGSGIHTDLMHYFDEYSEGEWVEYPYFDVYDLCEKINKSENFSSKTKDLASNAMNKLNEMIVYSFGDPSNNFKEGKNGLSIFLPNGDKKYSTYYTSTKIPHWTMQSWYNSIDTVKYGLNPYGKLSWCKDGQDPEINKVGNWFELLDSWFDKTNDVTGGVNHYQW		significantly higher than the maximum values that could be obtained when using trypsin	only slight CPA activity losses
